Source: patent US9957295B2, “Peptides inhibiting cold-inducible RNA binding protein activity” (The Feinstein Institute for Medical Research, priority 2013, dated 2018)

T1: MD2 (Homo sapiens, UniProt Q9Y6Y9)
T1 sequence (Q9Y6Y9 19-160): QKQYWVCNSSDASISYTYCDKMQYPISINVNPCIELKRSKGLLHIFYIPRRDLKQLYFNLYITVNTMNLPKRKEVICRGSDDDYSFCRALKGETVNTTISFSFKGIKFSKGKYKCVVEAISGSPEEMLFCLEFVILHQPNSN

T2: rhMD2 (Homo sapiens, UniProt Q9Y6Y9)
T2 construct: Glu17-Asn160); 10-His (C); purchased R&D Systems; host or cells: E. coli
T2 sequence (Q9Y6Y9 17-160): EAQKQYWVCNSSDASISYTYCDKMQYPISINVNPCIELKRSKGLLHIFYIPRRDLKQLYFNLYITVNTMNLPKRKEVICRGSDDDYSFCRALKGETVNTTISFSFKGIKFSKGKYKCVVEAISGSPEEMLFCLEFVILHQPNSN


How the values were obtained:
TLR4 = TLR4 (Homo sapiens, UniProt O00206); details: literature; cited from earlier work
MD2 = biological target: T1, MD2; details: literature; read-out: KD, binding to MD2; cited from earlier work
TLR4/MD2 complex = TLR4/MD2 complex (Homo sapiens, UniProt O00206+Q9Y6Y9); details: SPR, literature; read-out: KD, binding to TLR4/MD2 complex; cited from earlier work
rhMD2 = biological target: T2, rhMD2; assay: SPR binding to immobilized rhMD2; details: kinetic analysis, 25° C., read-out: apparent KD, binding to rhMD2
Procedure: (§1) Analysis of protein-protein and peptide-protein interactions were conducted using the BIAcore T200 instrument (GE Healthcare). Binding reactions were performed in 1×PBS buffer containing 0.01% Tween-20 (pH 7.4). The CM5 dextran chip (flow cell-2) was first activated by injection with 89 μl of 0.1 M […] and 0.1 M N-hydroxysuccinimide. An aliquot of 200 μl of 5 μg/ml of the ligand diluted in 10 mM sodium acetate (pH 4.5) was injected into flow cell-2 of the CM5 chip for immobilization. Next, 135 μl of 1 M ethanolamine (pH 8.2) was then injected to block the remaining active sites. The flow cell-1 without coating with the ligand was used as a control to evaluate nonspecific binding. The binding analyses were performed at flow rate of 30 μl/min at 25° C. To evaluate the binding, the analyte (ranging from 62.5 nM to 1.0 μM for kinetics analysis or 0.5 μM for yes/no binding analysis) was injected into flow cell-1 and -2 and the association of analyte and ligand was recorded respectively by surface plasmon resonance. The signal from the blank channel (flow cell-1) was subtracted from the channel (flow-cell 2) coated with the ligand. Data were analyzed by the BIAcore T200 Evaluation Software. For all samples, a blank injection with buffer alone was subtracted from the resulting reaction surface data. Data were globally fitted to the Lagmuir model for a 1:1 binding.
Surface plasmon resonance (SPR) analysis was utilized to determine the physical interaction and binding affinity between rhCIRP and pattern-recognition receptors and MD2. […] The sensorgrams show association and dissociation of analyte at the indicated concentration passed over to the immobilized ligand on the sensor chip, indicated as analyte/ligand on top of each diagram. […] The region of CIRP that binds to MD2 was determined via the synthesis of 32 oligopeptides (15-mer) covering the entire human CIRP sequence. The oligopeptides were passed over immobilized rhMD2 on the BIAcore instrument, followed by subsequent performance of a series of SPR analyses. Three oligopeptides with high binding affinity were indicated. […] Three oligopeptides, aa 101-115, 106-120 (C22), and 111-125 (C23) bound to rhMD2 with high affinity (FIG. 14 and FIG. 19).

THP-1 cells = assay: TNF-α release from differentiated THP-1 cells stimulated with recombinant proteins; format: cell-based, human; details: 4 h
Procedure: As with the murine model, the stimulation of TNF-α, release by rCIRP in a human model was studied. […] These experiments were conducted by incubating differentiated human THP-1 cells with rhCIRP or rmCIRP at the indicated concentrations for 4 h. *P<0.05 vs. no CIRP. Similarly, human PBMC were incubated with the indicated concentrations of rhCIRP for 8 h. *P<0.05 vs. no rhCIRP. Thus, stimulation of cytokine release by CIRP was not attributable to LPS contamination. Furthermore, CIRP-induced cytokine activation was conserved between rodents and humans.
rmCIRP induced TNF-α and HMGB1 release in macrophages (FIGS. 10a, b and c). It was reported that HMGB1 can also stimulate TNF-α release (Andersson, U., et al. High mobility group 1 protein (HMG-1) stimulates proinflammatory cytokine synthesis in human monocytes. J. Exp. Med. 192, 565-570 (2000)). The relationship between CIRP and HMGB1 on stimulating TNF-α release was analyzed by applying respective neutralizing antibodies. […] After 4 h, TNF-α levels in conditioned medium (CM) were assayed by ELISA. Data are mean±s.e.m. from three independent experiments. *P<0.05 vs. rmCIRP+ control IgG. In FIG. 16D, RAW 264.7 cells were pre-incubated with rabbit control IgG or anti-CIRP antibodies at indicated dilutions of 1 mg/ml for 20 min before adding 1.0 μg/ml rmCIRP. After 4 h, TNF-α levels in CM were assayed by ELISA. Data are mean±s.e.m. from three independent experiments. *P<0.05 vs. rmCIRP+ control IgG. THP-1 cells were incubated with 4 μg/ml of anti-CIRP antibodies, anti-HMGB1 antibodies, or non-immunized control IgG for 1 h prior to adding rmCIRP (0.3 μg/ml), rmHMGB1 (0.3 μg/ml), or rmCIRP/rmHMGB1 (0.3 μg/ml, 0.3 μg/ml) for 8 h. *P<0.05 vs. rmCIRP; #P<0.05 vs. rmHMGB1. […] Furthermore, rmCIRP, rmHMGB1, and rmCIRP plus rmHMGB1 induced TNF-α levels of 0.8, 0.6, and 1.6 ng/ml, respectively. […] TNF-α levels in all collected CM were assayed by ELISA. Data are mean±s.e.m. from three or four independent experiments.
Murine macrophage-like RAW 264.7 cells and human monocyte THP-1 cells were obtained from ATCC (Manassas, Va.). […]

RAGE = biological target: T3, RAGE (Homo sapiens, UniProt Q15109); assay: SPR binding to RAGE
T3 construct: Ala23-Ala344); 6-His (C); purchased Biovision; host or cells: human HEK293 cells
Procedure: as §1, with “The binding analyses were performed at flow rate of 30 μl/min at 25° C.” left out, “The signal from the blank channel (flow cell-1) was subtracted from the channel (flow-cell 2) coated with the ligand.” left out, “For all samples, a blank injection with buffer alone was subtracted from the resulting reaction surface data. Data were globally fitted to the Lagmuir model for a 1:1 binding.” left out
(§2) Surface plasmon resonance (SPR) analysis was utilized to determine the physical interaction and binding affinity between rhCIRP and pattern-recognition receptors and MD2. […] The region of CIRP that binds to MD2 was determined via the synthesis of 32 oligopeptides (15-mer) covering the entire human CIRP sequence. […]

TLR2 = biological target: T4, TLR2 (Homo sapiens, UniProt O60603); assay: SPR binding to TLR2
T4 construct: Glu21-Leu590); 10-His (C); purchased R&D Systems; host or cells: mouse myeloma NS0 cell line
Procedure: as §1, with “The binding analyses were performed at flow rate of 30 μl/min at 25° C.” left out, “The signal from the blank channel (flow cell-1) was subtracted from the channel (flow-cell 2) coated with the ligand.” left out, “For all samples, a blank injection with buffer alone was subtracted from the resulting reaction surface data. Data were globally fitted to the Lagmuir model for a 1:1 binding.” left out
as §2

T3 sequence (Q15109 23-344): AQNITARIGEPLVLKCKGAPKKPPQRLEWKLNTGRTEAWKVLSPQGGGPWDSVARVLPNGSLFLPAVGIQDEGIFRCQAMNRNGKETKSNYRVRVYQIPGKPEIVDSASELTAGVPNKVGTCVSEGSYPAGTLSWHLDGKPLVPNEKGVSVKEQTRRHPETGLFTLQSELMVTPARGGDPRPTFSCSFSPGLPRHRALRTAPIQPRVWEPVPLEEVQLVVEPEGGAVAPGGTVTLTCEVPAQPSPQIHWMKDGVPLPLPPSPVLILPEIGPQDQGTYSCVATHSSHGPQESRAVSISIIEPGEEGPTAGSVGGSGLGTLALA
Chain of TLR4 (O00206 24-631 limits assumed, species assumed): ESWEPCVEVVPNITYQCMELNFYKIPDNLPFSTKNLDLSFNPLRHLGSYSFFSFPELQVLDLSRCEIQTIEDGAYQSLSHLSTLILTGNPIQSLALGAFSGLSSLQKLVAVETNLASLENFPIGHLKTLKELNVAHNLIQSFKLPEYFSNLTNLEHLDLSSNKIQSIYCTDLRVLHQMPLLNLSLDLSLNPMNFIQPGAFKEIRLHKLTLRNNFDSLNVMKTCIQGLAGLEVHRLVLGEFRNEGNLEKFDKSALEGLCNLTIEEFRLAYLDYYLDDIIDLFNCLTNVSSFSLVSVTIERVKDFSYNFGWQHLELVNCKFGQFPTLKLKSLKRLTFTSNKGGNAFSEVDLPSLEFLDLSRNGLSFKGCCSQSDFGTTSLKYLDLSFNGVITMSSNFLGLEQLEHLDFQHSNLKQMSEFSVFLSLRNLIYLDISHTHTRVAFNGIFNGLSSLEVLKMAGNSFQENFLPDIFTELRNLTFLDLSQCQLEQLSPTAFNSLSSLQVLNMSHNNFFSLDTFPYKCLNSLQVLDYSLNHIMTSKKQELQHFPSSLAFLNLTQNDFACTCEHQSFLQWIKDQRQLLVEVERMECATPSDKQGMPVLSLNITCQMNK
Chain of TLR4/MD2 complex (O00206 24-631 limits assumed, one chain of several): as the sequence (O00206 24-631 limits assumed, species assumed) above
T4 sequence (O60603 21-590): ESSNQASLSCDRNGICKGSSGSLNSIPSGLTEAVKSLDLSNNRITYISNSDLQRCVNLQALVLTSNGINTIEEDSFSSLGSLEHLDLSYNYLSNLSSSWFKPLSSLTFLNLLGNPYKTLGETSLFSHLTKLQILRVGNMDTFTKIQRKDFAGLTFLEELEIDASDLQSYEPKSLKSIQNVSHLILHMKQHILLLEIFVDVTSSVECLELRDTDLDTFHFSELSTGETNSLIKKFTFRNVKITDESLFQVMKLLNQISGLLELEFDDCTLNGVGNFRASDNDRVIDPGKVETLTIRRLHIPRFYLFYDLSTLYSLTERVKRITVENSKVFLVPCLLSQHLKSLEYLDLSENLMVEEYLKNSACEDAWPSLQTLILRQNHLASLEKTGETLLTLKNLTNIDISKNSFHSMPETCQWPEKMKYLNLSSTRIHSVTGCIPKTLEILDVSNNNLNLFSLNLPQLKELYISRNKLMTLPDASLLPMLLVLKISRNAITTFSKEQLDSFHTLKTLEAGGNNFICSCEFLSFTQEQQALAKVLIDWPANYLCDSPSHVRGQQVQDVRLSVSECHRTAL

Kd (rhMD2) | KD with RAGE (RAGE) | KD with TLR2 (TLR2) | Molecule | binding to TLR4 (in words) (TLR4) | Kd (MD2) | Kd (TLR4/MD2 complex) | activity in stimulating TNF-α release from differentiated THP-1 cells (THP-1 cells)
 |  |  | HMGB1: high mobility group box 1 protein, proinflammatory cytokine; literature binding data | did not bind to TLR4 | 8 nM | 1500 nM | 
302 nM | in the nM range | in the nM range | rhCIRP: recombinant human CIRP, full length, C-terminal DDK tag, from HEK293 cells (Origene) (protein, left off: small tags and cut ends) MASDEGKLFVGGLSFDTNEQSLEQVFSKYGQISEVVVVKDRETQRSRGFGFVTFENIDDAKDAMMAMNGKSVDGRQIRVDQAGKSSDNRSRGYRGGSAGGRGFFRGGRGRGRGFSRGGGDRGYGGNRFESRSGGYGGSRDYYSSRSQSGGYSDRSSGGSYRDSYDSYATHNE |  |  |  | comparable activity to rmCIRP
